Data as given in paper PMC6426973, “Oligomeric self-association contributes to E2A-PBX1-mediated oncogenesis”.

Molecular target: T1, E2A-PBX1 ΔPBC-B (MBP fusion) (UniProt P15923 1-483+P40424:232-430, internal_change)
T1 sequence: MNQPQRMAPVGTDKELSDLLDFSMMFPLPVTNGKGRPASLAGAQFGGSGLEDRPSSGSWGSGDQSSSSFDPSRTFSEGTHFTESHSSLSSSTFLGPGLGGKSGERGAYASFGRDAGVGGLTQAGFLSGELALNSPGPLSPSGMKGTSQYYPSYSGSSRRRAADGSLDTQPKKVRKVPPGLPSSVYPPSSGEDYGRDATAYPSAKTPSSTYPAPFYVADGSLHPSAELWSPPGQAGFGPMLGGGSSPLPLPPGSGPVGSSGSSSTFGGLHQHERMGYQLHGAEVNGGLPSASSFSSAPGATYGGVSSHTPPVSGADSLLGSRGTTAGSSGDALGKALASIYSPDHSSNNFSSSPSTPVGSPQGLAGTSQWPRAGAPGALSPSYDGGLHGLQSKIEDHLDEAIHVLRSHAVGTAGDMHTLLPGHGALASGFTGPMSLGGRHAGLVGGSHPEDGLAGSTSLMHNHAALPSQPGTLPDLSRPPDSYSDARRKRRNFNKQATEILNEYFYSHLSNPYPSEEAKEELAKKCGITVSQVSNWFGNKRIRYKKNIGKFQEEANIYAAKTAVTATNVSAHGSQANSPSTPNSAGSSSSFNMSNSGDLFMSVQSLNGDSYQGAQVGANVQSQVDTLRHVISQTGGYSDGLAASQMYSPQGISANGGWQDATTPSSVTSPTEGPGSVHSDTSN
Experiment: EMSA; LightShift Chemiluminescent EMSA kit (manufacturer's conditions), room temperature 20 min, 5% TBE gel in 0.5X TBE; salt and pH not stated
Conditions: protein: recombinant; tags: MBP; label: biotin (end label); blunt

B1: PBX1 consensus site oligonucleotide (dsDNA)
DNA 1: TGATTGATTGATTGAT
DNA 2: ATCAATCAATCAATCA
binding result: no binding
